For 22 sequences, protein production results are on record in a protein production outcome set (Wang et al. 2014).

This series can be described thus: label from the status in PepcDB records.

Consider “MSLELARRLVEILLALALIQQSLEHLRGFRDERILFGARIVLAVLVLAGVAGPWPLVGLAGLSLLILHRFQGPYNGGSDRMGLLILWCLTLSSLAPTPILAELAFGYLGAQLTLSYFISGWVKVVNPDWRSGRALRDVFQFSAYPVAESLRGFAQRPGLLRAMSWGVMGFELAFPLTLLWPPALMVGLVVAGTFHLANACLFGLNRFFWTWLSAYPAILWLQGRVF”, for which the protein production entry is on record as “failed”.

For “MSLETFHYIANQLSGIFNFNGEPLATALIILGLAILSIMILAGLIYGAIKVVKAVPNMPFKQFIIVMLMIAVFLVIVGVLIP”, the protein production entry is listed as “failed”.

In the case of “MSLETKTPNDAKNQVQTHERMKTSSEHVTPLDFNYPIHIVQAPQNHHVVGILTPRIQVSDNLKPYIDKFQDALINQIQTIFEKRGYQVLRFQDEKALNAQDKRKIFSVLDLKGWVGILEDLKMNLKDPNNPNLDTLVDQSSGSVWFNFYEPESNRVVHDFAVEVGTFQAMTYTYKHNNSGGLNSSNSIIHEYLEKNKEDAIHKILNRMYAVVMKKAVTELTKENIDKYREAIDRMKGFKSSMPQKKEGHHHHHH”, the protein production result was “not failed”.

For “MSLFEAILIILVLIIISAVISSSEISLAGARKLKLHSLAKDGDIRAEKVMRLQEQPGRFITMVQIGLNMVAILGGVVGESAITPYLAKLLAQYSQAEWTESTASWLSFALVTSAFVLLADLMPKRIAMTYPEQVAVRTINIMLCLITIFKPLVLLFDSIANLLFRLFGISTVRQDNMTSEDIVAVVDAGAKAGILKAQEHYLIENVFEMQERRVTSTMTTRENIIFLDRKDNREQVLATLGEDPYSKVLICDNGLDKILGYIETHDLLTQYLKNDHVSLVDSRLLRKPVFIPDTLSLYEVLELFKSAGEDFAVIVNEYALVVGILTINDVMSIVMGELVSTEEEQIMRRNEDSWLIDGATPLEDVMRALNIHTFPRDENYETIGGFMMYMLRKIPKKTDFVLYDKYKFEIIDTENFRIDQLMVSFRKDV”, the protein production result is “failed”.

On to “MSLFGTTSGFGTSGTSMFGSATTDNHNPMKDIEVTSSPDDSIGCLSFSPPTLPGNFLIAGSWANDVRCWEVQDSGQTIPKAQQMHTGPVLDVCWSDDGSKVFTASCDKTAKMWDLSSNQAIQIAQHDAPVKTIHWIKAPNYSCVMTGSWDKTLKFWDTRSSNPMMVLQLPERCYCADVIYPMAVVATAERGLIVYQLENQPSEFRRIESPLKHQHRCVAIFKDKQNKPTGFALGSIEGRVAIHYINPPNPAKDNFTFKCHRSNGTNTSAPQDIYAVNGIAFHPVHGTLATVGSDGRFSFWDKDARTKLKTSEQLDQPISACCFNHNGNIFAYASSYDWSKGHEFYNPQKKNYIFLRNAAEELKPRNKK”, for which the protein production entry is “failed”.

Take “MSLFPGDIEELARRIITDFTPLGLMVSTAESCTGGLIAGALTEIAGSSAVVDRGFVTYTNDAKRDMLGVGTETLTTFGAVSRQTALQMAHGALYRSRANFAVAVTGIAGPGGGSAEKPVGLVHLATKARNGNVLHHEMRYGDIGRTEIRLATVRTALEMLIALNQAGSV”: the protein production entry is on record as “not failed”.

With “MSLGGNGREKDHASELRSIFSLKKIADAVNGYEEAKYVVFGIPFDNTSSYRRGSKYAPDSIRGAYVNLESYEYSYGIDLLASGMADLGDMEESEDVEYVIDTVESVVSAVMSDGKIPIMLGGEHSITVGAVRALPKDVDLVIVDAHSDFRSSYMGNKYNHACVTRRALDLLGEGRITSIGIRSVSREEFEDPDFRKVSFISSFDVKKNGIDKYIEEVDRKSRRVYISVDMDGIDPAYAPAVGTPEPFGLADTDVRRLIERLSYKAVGFDIVEFSPLYDNGNTSMLAAKLLQVFIASREKYYKEHIEGHHHHHH”, the protein production result is “not failed”.

Regarding “MSLGNIFVTGRIAFSLKYEQQTQSLVVHVKECHQLAYADEAKKRSNPYVKTYLLPDKSRQGKRKTSIKRDTVNPLYDETLRYEIPESLLAQRTLQFSVWHHGRFGRNTFLGEAEIQMDSWKLDKKLDHCLPLHGKISAESEGHHHHHH”, the protein production entry is listed as “not failed”.

With “MSLGNNSAKGTATGNATALWRNAQLATLNPAMDGIGAVENAVIAVRNGRIAFAGPESDLPDDLSTADETTDCGGRWITPALIDCHTHLVFGGNRAMEFEMRLNGATYEEIAKAGGGIVSSVRDTRALSDEVLVAQALPRLDTLLSEGVSTIEIKSGYGLDIETELKMLRVARRLETLRPVRIVTSYLAAHATPADYKGRNADYITDVVLPGLEKAHAEGLADAVDGFCEGIAFSVKEIDRVFAAAQQRGLPVKLHAEQLSNLGGAELAASYNALSADHLEYLDETGAKALAKAGTVAVLLPGAFYALREKQLPPVQALRDAGAEIALATDCNPGTSPLTSLLLTMNMGATLFRMTVEECLTATTRNAAKALGLLAETGTLEAGKSADFAIWDIERPAELVYRIGFNPLHARIFKGQKVSPEGHHHHHH”, the protein production result is on record as “not failed”.

Regarding “MSLGQQQVTLFWSGAITGPTSDAGAPYGAAVEDYCKWANERKLVPGVVFNCVVRDDQYNNANTQRFFEEAVDRFKIPVFLSYATGANLQLKPLIQELRIPTIPASMHIELIDPPNNDYIFLPTTSYSEQVVALLEYIAREKKGAKVALVVHPSPFGRAPVEDARKAARELGLQIVDVQEVGSGNLDNTALLKRFEQAGVEYVVHQNVAGPVANILKDAKRLGLKMRHLGAHYTGGPDLIALAGDAAEGFLWATSFYMAHEDTPGIRLQKEIGRKYGRPENFIESVNYTNGMLAAAIAVEAIRRAQERFKRITNETVYQAIVGMNGPNAFKPGFAVSTKQGVEIDFTKSEHTGAEGLRILEAKGGRFVPVTEPFTSALFRKVHYGEGHHHHHH”, the protein production entry is given as “not failed”.

In the case of “MSLGRTDAIALAYPSRPRVLNNSTFLEMISWIGIELGKRGLDLLLIPDEPGEKYQSLIHLVETRRVDALIVAHTQPEDFRLQYLQKQNFPFLALGRSHLPKPYAWFDFDNHAGASLAVKRLLELGHQRIAFVSTDARISYVDQRLQGYVQTMSEAGLMPLAGYLQKADPTRPGGYLAASRLLALEVPPTAIITDCNMLGDGVASALDKAGLLGGEGISLIAYDGLPDDSLLDIAVTPIVQNTRTSVGKQIASMICDLLGGKDPKELQVLWQPEIGEGETDGVNRRGEGHHHHHH”, the protein production entry is “not failed”.

As for “MSLHDQRVHAERDPLDPQAHGLTITRIETIPMVAPLAREFRGSHYHMTHRATIVTRVHTDAGIIGEAYTGDEHETMFDIDRIIHEELAPTLIGQDAMAIERLWDSGYKVTFDILRDRRLGLVALAAVNTAIWDAVGKALKMPLWKLWGGYRNELPMIAIGGYYGEPLGSIADEMHNYQELGLAGVKFKVGGLSAAEDAARITAAREAAGDDFIICIDANQGYKPAVAVDLSRRIADLNIRWFEEPVEWHNDKRSMRDVRYQGSVPVCAGQTEFSASGCRDLMETGAIDVCNFDSSWSGGPTAWLRTAAIATSYDVQMGHHEEPQVSTHLLASQPHGTIAECFHPDRDPFWWNMITNRPKLNNGTLTLSDRPGLGWDLNWDYIDQYRVSKDEGHHHHHH”, the protein production entry is recorded as “not failed”.

In the case of “MSLHETFNRSAFSQFINGGQGRVLRLAAGLGFLAVGLVYRDRALGLAAMAWSVLPLTAGGFDVCYISAALGGPLSGEKIRRLRR”, the protein production entry is given as “failed”.

Consider “MSLHPHLNANLEGGVLTLAINRPEAKNALYGELYLWIAKALDEADQNKDVRVVVLRGAEHDFTAGNDMKDFMGFVQNPNAGPAGQVPPFVLLKSAARLSKPLIIAVKGVAIGIGVTILLQADLVFADNTALFQIPFVSLGLSPEGGASQLLVKQAGYHKAAELLFTAKKFNAETALQAGLVNEIVEDAYATAQATAQHLTALPLASLKQTKALMKHDLDQIIECIDHEAEIFMQRVQSPEMLEAVQAFMQKRQPDFSQEGHHHHHH”, for which the protein production result is listed as “not failed”.

As to “MSLIPLRQNIASMKGYIPGYQPPDIASWIKLNTNENPYPPSPEVVKAILEELGPDGAALRIYPSASSQKLREVAGELYGFDPSWIIMANGSDEVLNNLIRAFAAEGEEIGYVHPSYSYYGTLAEVQGARVRTFGLTGDFRIAGFPERYEGKVFFLTTPNAPLGPSFPLEYIDELARRCAGMLVLDETYAEFAESNALELVRRHENVVVTRTLSKSYSLAGMRIGLAIARPEVIAALDKIRDHYNLDRLAQAACVAALRDQAYLSECCRRIRETREWFTTELRSIGYDVIPSQGNYLFATPPDRDGKRVYDGLYARKVLVRHFSDPLLAHGMRISIGTREEMEQTLAALKEIGEGHHHHHH”, the protein production result is “not failed”.

With “MSLISIFIPEILLVIMGFIVLAVGMFIQSGKASAAISFITLIAALLSVFFIPYDSSYGITVNKFSVYFSAVLIISALFISLPMYRYVKKRPEVFYASLIFSVIGMVIVAMTWNLVIAFVAFESVSIMTYIMSAYGGKQRNLEATIKYFFTGTIATTFIILGIGFYFFSVHTFSLSPVLNGSSISYYSGTKPEFLLALLFLLIGFGFKLAIFPMHQWAIDAYDGTENGVSAYLSTGTKIMAFVLVLKIFLVGFQSFPTPVYYMFTIIAIITMTYANVAALSQMNVKRLLAYSSVAQAGYMILVISVVSYVGLGSARSVSLAIAAGMFYALVYVFMKGGSFIAMNMVKEDNITFENISGLGKKSPYVAASFSILLLSLAGIPLTGGFLAKYFLFLSVIDSGLWWLAIIAIINSAISVFYYMKVMRYLFWEEPKGEFSTDMGNKAAVIVSAAIVVFLGVFYVLFPVLVGISSQIVG”, the protein production entry is recorded as “failed”.

Turning to “MSLIVVTGGAGFIGSHVVDKLSESNEIVVIDNLSSGNEEFVNEAARLVKADLAADDIKDYLKGAEEVWHIAANPDVRIGAENPDEIYRNNVLATYRLLEAMRKAGVSRIVFTSTSTVYGEAKVIPTPEDYPTHPISLYGASKLACEALIESYCHTFDMQAWIYRFANVIGRRSTHGVIYDFIMKLKRNPEELEILGNGEQNKSYIYISDCVDAMLFGLRGDERVNIFNIGSEDQIKVKRIAEIVCEELGLSPRFRFTGGDRGWKGDVPVMLLSIEKLKRLGWKPRYNSEEAVRMAVRDLVEDLDEEGHHHHHH”, the protein production entry is “not failed”.

As for “MSLIYQIAKEFDFCYGHRVWSQELNPDFSLDPCLSCRHLHGHQGKVIVHLESRELQRGMVTDFAHLNWFKRFIDEVLDHRFIIDIDDPLFPTLLPHFADKSALVWMEEGYARVDFERIKGESSPILELYESFVVVRFVPTSESIASWLLELLRSRIQPLGVKVSSVEFLETPKSRARVYNEGHHHHHH”, the protein production result is “not failed”.

Consider “MSLKDKKILIVEDSKFQAKTIANILNKYGYTVEIALTGEAAVEKVSGGWYPDLILMDIELGEGMDGVQTALAIQQISELPVVFLTAHTEPAVVEKIRSVTAYGYVMKSATEQVLITIVEMALRLYEANVHANEGHHHHHH”, for which the protein production result is reported as “not failed”.

As for “MSLKFENTGLENQTVELSRLDDIMERLGFVRAAQWDYERVTYDRKYVVKEGTYYLRVQGYAIEGNVDSRYALIKLLTPIMGKHYYPHGVEYGDDEHFPSSLVSQCQNVLAQVKSELEKIKEEGHHHHHH”, the protein production entry is reported as “not failed”.

On to “MSLKFQKLSGLVLCFLIALPAWFLGQSFPLVGAPVFAIFLGMLLAIFYKNREHTEAGIAFTSKYILQFAVVLLGFGLNLSQVLTVGKTSLPIIVATISSSLLLAFLLQKWFKLDVNTATLVGVGSSICGGSAIAATAPVIQADGDEIAQSISVIFLFNILAALIFPTLGDMIGLSNHGFALFAGTAVNDTSSVTATAAAWDGLHHSNTLDGATIVKLTRTLAIIPITLGLSFYQVYKTKKVGKNQQHTVKLKKVFPMFILYFILASIITTILTALGVNPIFFTPLKTLSKFCIVMAMGAIGLNTNIVKLVKTGGQAIVLGASCWIVITLVSLGMQHLLGIW”, for which the protein production entry is given as “failed”.

Take “MSLKKALFLILDQYADWEGVYLASALNQREDWSVHTVSLDPIVSSIGGFKTSVDYIIGLEPANFNLLVMIGGDSWSNDNKKLLHFVKTAFQKNIPIAAICGAVDFLAKNGLLNNHSHTGNFVYLWKDYKQYKPISSFVEKQAVRDKNLVTANGTAPIEFTNLILEMIDFDTPENIEKMMYMNRYGFYHFCDKYGNPFVEGHHHHHH”: the protein production entry is reported as “not failed”.
